# Data reported in patent publication US20240343803A1 (SHANDONG SIMCERE BIOPHARMACEUTICAL, published 2024).
# T1: human PVRIG on FlpinCHO-PVRIG cells (human, UniProt Q6DKI7 41-326)
# T1 construct: whole, on cells
# T1 sequence (looked up): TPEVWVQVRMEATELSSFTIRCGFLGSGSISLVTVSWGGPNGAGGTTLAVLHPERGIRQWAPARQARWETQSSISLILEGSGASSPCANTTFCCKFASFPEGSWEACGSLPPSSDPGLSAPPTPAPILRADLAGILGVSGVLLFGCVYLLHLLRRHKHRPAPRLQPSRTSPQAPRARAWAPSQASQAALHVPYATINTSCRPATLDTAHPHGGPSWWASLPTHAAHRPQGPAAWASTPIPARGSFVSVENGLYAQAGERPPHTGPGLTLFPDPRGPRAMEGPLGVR
# T2: human PVRIG-his (AcroBiosystems, Cat NO. PVG-H52H4) (human, UniProt Q6DKI7 41-171, limits assumed)
# T2 construct: also called human PVRIG protein
# T2 sequence (looked up): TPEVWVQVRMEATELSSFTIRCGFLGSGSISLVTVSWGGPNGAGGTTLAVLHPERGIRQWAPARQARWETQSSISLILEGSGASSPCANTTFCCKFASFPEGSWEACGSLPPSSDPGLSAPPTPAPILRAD
# How the values were obtained:
# [1] = biological target: T1, human PVRIG on FlpinCHO-PVRIG cells; test: FACS, FlpinCHO-PVRIG cells
# Experimental: The Ham's F12 (Gibico, 21127-022) complete medium containing 10% FBS was then added to terminate the digestion and acquire cell suspension. After counting with a cell counter (Beckman Coulter, Vi-CELL), an appropriate amount of cell suspension was centrifuged at 350×g to remove the supernatant, washed twice with PBS, stained with Zombie violet (Biolegend, 423114) and incubated at room temperature for 20 minutes. After incubation, the cells were added with staining buffer (2% FBS+PBS) to stop staining, centrifuged at 350×g to remove the supernatant, washed twice and resuspended with staining buffer to a density of 2×10⁶ cells/mL. The cells were plated into a 96-well plate (50 μL of cell suspension per well) for further use. The antibodies were diluted from the highest concentration of 46 nM (two-fold concentration) with staining buffer by 3.3-fold serial dilution. The diluted antibodies were added to the well containing 50 μL of cell suspension. The plate was placed on a microplate shaker at 400 rpm for 1 minute to fully mix the antibodies and cells, and then incubated at 4° C. for 30 minutes. After the incubation, the cells were washed twice with staining buffer (200 μL per well) and centrifuged at 350×g for 5 minutes to discard the supernatant. The PE goat anti-human IgG Fc antibody (ebioscience, 12-4998-82) was diluted 250 times with staining buffer, added into the washed wells (100 μL per well), mixed well, and stained at 4° C. for 30 minutes. After staining, the cells were washed twice with staining buffer, finally resuspended with 200 μL staining buffer and analyzed by flow cytometry (BD, Canto II). The stronger the signal, the stronger the ability of the antibodies binds to PVRIG. An antibody binding curve was drawn with concentration of antibodies as the abscissa and the corresponding Mean Fluorescence Intensity (MFI) as the ordinate. The AUC value of the curve was calculated by using a Four Parameter Logistic Fit (GraphPadPrism9). The stronger the AUC value, the stronger the ability of the antibodies binds to FlpinCHO-PVRIG and FlpinCHO-cyno PVRIG. […] The binding activity of the antibodies was normalized to the positive control COM701-hIgG1 and SRF813-hIgG1.
# [2] = biological target: T2, human PVRIG-his (AcroBiosystems, Cat …); test: SPR (BIAcore), antibody captured on Protein A chip, human PVRIG-His analyte
# Experimental: Biacore was used to detect the specific binding between anti-PVRIG antibody and human PVRIG protein. Protein A chip was used in the BIAcore assay. The time required for the chip to capture the diluted antibody and saturate the binding antigen to reach Rₘₐₓ (Maximum binding capacity, 50 RU) was measured by manual run. […] The affinity of antibody for antigen was measured by multi-cycle kinetics. In each cycle, the antibodies were injected prior to the injection of gradient concentraions of PVRIG proteins allowing the occurrence of antibody-antigen association and dissociation After each cycle, the Protein A chip was regenerated by Glycine, pH 1.5 (to remove the proteins on the chip). The affinity of antibody for antigen was calculated by BIAcore T200 analysis software.
# The methods refer to Example 10.
Binder,AUC % to COM701-hIgG1 [1] [%],AUC % to SRF813-hIgG1 [1] [%],AUC % to parental Ab [1] [%],Kd [2] [nM],koff [2] [s⁻¹],kon [2] [M⁻¹ s⁻¹]
"PVRIG-A50 (Fc fusion, heavy chain antibody VHH-hinge-CH2-CH3, human IgG1 constant part; also called PVRIG-50; not shown: human IgG1 hinge-CH2-CH3) EVQLVESGGGLVQPGGSLRLSCAASGFTFSYYDMSWVRQAPGKGLEWVSTINSNGGRTSYVDSVKGRFTISRDNTKNTLYLQMNSLKPEDTAVYYCVEGDPHNFGLENLSLRDFGSWGQGTQVTVSS",73.4,130,100,0.043,1.9e-05,443000
"PVRIG-A118 (Fc fusion, heavy chain antibody VHH-hinge-CH2-CH3, human IgG1 constant part; not shown: human IgG1 hinge-CH2-CH3) QVQLVESGGGLVQAGGSLRLSCAASETYFDLYVMGWYRQAPGKDRELVATITYTGSIKIVDSVKDRFTISRGDAKNTVSLQMSSLKPEDTAVYFCNADPSGLGRKVYWGQGTQVTVSS",136,191,100,0.483,0.00102,2.12e+06
"PVRIG-A118-H6 (Fc fusion, humanized variant of PVRIG-A118; also called A118.VH6; not shown: constant part not restated for the humanized forms; parents are VHH-hinge-CH2-CH3 of human IgG1; detected by anti-human) EVQLVESGGGLVQPGGSLRLSCAASETYFDLYVMGWYRQAPGKDRELVATITYTGSIKIVDSVKGRFTISRGDAKNSLYLQMNSLRAEDTAVYYCNADPSGLGRKVYWGQGTMVTVSS",129,180,94.2,1.1,0.00299,2.71e+06
"PVRIG-A118-H5 (Fc fusion, humanized variant of PVRIG-A118; also called A118.VH5; not shown: constant part not restated for the humanized forms; parents are VHH-hinge-CH2-CH3 of human IgG1; detected by anti-human) EVQLVESGGGLVQPGGSLRLSCAASETYFDLYVMGWYRQAPGKDRELVATITYTGSIKYVDSVKGRFTISRGDAKNSVYLQMNSLRAEDTAVYYCNADPSGLGRKVYWGQGTMVTVSS",128,179,93.9,1.37,0.00383,2.79e+06
"PVRIG-A118-H7 (Fc fusion, humanized variant of PVRIG-A118; also called A118.VH7; not shown: constant part not restated for the humanized forms; parents are VHH-hinge-CH2-CH3 of human IgG1; detected by anti-human) EVQLVESGGGLVQPGGSLRLSCAASETYFDLYVMGWYRQAPGKDRELVATITYTGSIKYVDSVKGRFTISRGDAKNSLYLQMNSLRAEDTAVYFCNADPSGLGRKVYWGQGTMVTVSS",126,177,92.7,1.08,0.0026,2.41e+06
"PVRIG-A118-H4 (Fc fusion, humanized variant of PVRIG-A118; also called A118.VH4; not shown: constant part not restated for the humanized forms; parents are VHH-hinge-CH2-CH3 of human IgG1; detected by anti-human) EVQLVESGGGLVQPGGSLRLSCAASETYFDLYVMGWYRQAPGKDRELVATITYTGSIKYVDSVKGRFTISRGDAKNSLSLQMNSLRAEDTAVYYCNADPSGLGRKVYWGQGTMVTVSS",132,185,97,1.21,0.00327,2.69e+06
"PVRIG-A105 (Fc fusion, heavy chain antibody VHH-hinge-CH2-CH3, human IgG1 constant part; not shown: human IgG1 hinge-CH2-CH3) EVQLVESGGGLVQAGGSLRLSCAASGRTFDRHTMTWFRQAPGKEREFVATASRIPGDTYYSHSVKGRFTISRDNAKNTVYLQLNNLKPEDTAVYYCAATSAYCSEVDCYEKGSWYDNWGQGIQVTVSS",124,186,100,0.675,0.000486,721000

# Further lines, results first:
AUC % to COM701-hIgG1 [1] [%],AUC % to SRF813-hIgG1 [1] [%],AUC % to parental Ab [1] [%],Kd [2] [nM],koff [2] [s⁻¹],kon [2] [M⁻¹ s⁻¹],Binder
74.4,132,101,0.0362,1.48e-05,410000,"PVRIG-A50-H1 (Fc fusion, humanized variant of PVRIG-A50; also called A50.VH1; not shown: constant part not restated for the humanized forms; parents are VHH-hinge-CH2-CH3 of human IgG1; detected by anti-human) EVQLVESGGGLVQPGGSLRLSCAASGFTFSYYDMSWVRQAPGKGLEWVSTINSNGGRTSYVDSVKGRFTISRDNSKNTLYLQMNSLRAEDTAVYYCVEGDPHNFGLENLSLRDFGSWGQGTMVTVSS"
60.3,107,82.2,0.0551,1.46e-05,265000,"PVRIG-A50-H1e (Fc fusion, humanized variant of PVRIG-A50; also called VH1e; not shown: constant part not restated for the humanized forms; parents are VHH-hinge-CH2-CH3 of human IgG1; detected by anti-human) EVQLVESGGGLVQPGGSLRLSCAASGFTFSYYDMSWVRQAPGKGLEWVSTINSNAGRTSYVDSVKGRFTISRDNSKNTLYLQMNSLRAEDTAVYYCVEGDPHNFGLESLSLRDFGSWGQGTMVTVSS"
70.4,125,96,0.0451,1.92e-05,425000,"PVRIG-A50-H1a (Fc fusion, humanized variant of PVRIG-A50; also called A50.VH1a; not shown: constant part not restated for the humanized forms; parents are VHH-hinge-CH2-CH3 of human IgG1; detected by anti-human) EVQLVESGGGLVQPGGSLRLSCAASGFTFSYYDMSWVRQAPGKGLEWVSTINSDGGRTSYVDSVKGRFTISRDNSKNTLYLQMNSLRAEDTAVYYCVEGDPHNFGLENLSLRDFGSWGQGTMVTVSS"
69.2,122,94.2,0.0462,2.03e-05,438000,"PVRIG-A50-H1c (Fc fusion, humanized variant of PVRIG-A50; also called A50.VH1c; not shown: constant part not restated for the humanized forms; parents are VHH-hinge-CH2-CH3 of human IgG1; detected by anti-human) EVQLVESGGGLVQPGGSLRLSCAASGFTFSYYDMSWVRQAPGKGLEWVSTINSDGGRTSYVDSVKGRFTISRDNSKNTLYLQMNSLRAEDTAVYYCVEGDPHNFGLENLALRDFGSWGQGTMVTVSS"
60.5,107,82.5,0.0804,2.82e-05,350000,"PVRIG-A50-H1b (Fc fusion, humanized variant of PVRIG-A50; also called A50.VH1b; not shown: constant part not restated for the humanized forms; parents are VHH-hinge-CH2-CH3 of human IgG1; detected by anti-human) EVQLVESGGGLVQPGGSLRLSCAASGFTFSYYDMSWVRQAPGKGLEWVSTINSDGGRTSYVDSVKGRFTISRDNSKNTLYLQMNSLRAEDTAVYYCVEGDPHNFGLESLSLRDFGSWGQGTMVTVSS"
61.9,110,84.4,0.0585,1.61e-05,276000,"PVRIG-A50-H2a (Fc fusion, humanized variant of PVRIG-A50; also called A50.VH2a; not shown: constant part not restated for the humanized forms; parents are VHH-hinge-CH2-CH3 of human IgG1; detected by anti-human) EVQLVESGGGLVQPGGSLRLSCAASGFTFSYYDMSWVRQAPGKGLEWVSTINSNAGRTSYVDSVKGRFTISRDNTKNTLYLQMNSLRAEDTAVYYCVEGDPHNFGLESLSLRDFGSWGQGTMVTVSS"
115,174,93.1,0.796,0.000773,972000,"PVRIG-A105-H4 (Fc fusion, humanized variant of PVRIG-A105; also called A105.VH4; not shown: constant part not restated for the humanized forms; parents are VHH-hinge-CH2-CH3 of human IgG1; detected by anti-human) EVQLVESGGGLVQPGGSLRLSCAASGRTFDRHTMTWFRQAPGKEREFVATASRIPGDTYYSHSVKGRFTISRDNAKNSLYLQMNSLRAEDTAVYYCAATSAYCSEVDCYEKGSWYDNWGQGTMVTVSS"
125,189,101,0.622,0.000576,925000,"PVRIG-A105-H3 (Fc fusion, humanized variant of PVRIG-A105; also called A105.VH3; not shown: constant part not restated for the humanized forms; parents are VHH-hinge-CH2-CH3 of human IgG1; detected by anti-human) EVQLVESGGGLVQPGGSLRLSCAASGRTFDRHTMTWFRQAPGKEREFVATASRIPGDTYYVDSVKGRFTISRDNAKNSVYLQMNSLRAEDTAVYYCAATSAYCSEVDCYEKGSWYDNWGQGTMVTVSS"
123,185,99.1,0.932,0.0013,1.39e+06,"PVRIG-A105-H1 (Fc fusion, humanized variant of PVRIG-A105; also called A105.VH1; not shown: constant part not restated for the humanized forms; parents are VHH-hinge-CH2-CH3 of human IgG1; detected by anti-human) EVQLVESGGGLVQPGGSLRLSCAASGRTFDRHTMSWFRQAPGKEREFVATASRIPGDTYYVDSVKGRFTISRDNAKNSLYLQMNSLRAEDTAVYYCAATSAYCSEVDCYEKGSWYDNWGQGTMVTVSS"
